In the supplement of paper PMC10724198:
± gives the standard deviation of the averaged measurements.

Tested on: Saccharomyces cerevisiae
Experiment: protein stability index of tFT-peptide fusion (C-terminal peptide) (PSI (0-1 scale)); higher = more stable (slower turnover)
Conditions: temperature: 30 C
Method: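 MPS profiling in S. cerevisiae of the yeast C-terminome library: the last 12 aa of each annotated ORF are fused to the C-terminus of a sfGFP-mCherry timer, after a GGGS linker. Cells are FACS-sorted into 8 mCherry/sfGFP bins and deep-sequenced. PSI runs from 0 (unstable) to 1 (stable); wild type and das1Δ backgrounds, two technical replicates each.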

[1] = genetic background: das1 deletion

## KHKNILFFNHNT [YJR162C C-terminal 12 aa]
[1]
  protein stability index: 0.725 ± 0.015
Genetic background: wild type
  protein stability index: 0.199 ± 0.0036

## VFISTVLLAIVW [YAL065C C-terminal 12 aa]
[1]
  protein stability index: 0.196 ± 0.015
Genetic background: wild type
  protein stability index: 0.192 ± 0.0067

## VPEEQRIKRRKI [IRC4 C-terminal 12 aa]
[1]
  protein stability index: 0.705 ± 0.037
Genetic background: wild type
  protein stability index: 0.3 ± 0.035

## AFLKIFENAMPN [ADD37 C-terminal 12 aa]
[1]
  protein stability index: 0.725 ± 0.019
Genetic background: wild type
  protein stability index: 0.678 ± 0.0089

## IIEEKVRNYLNK [RIB5 C-terminal 12 aa]
[1]
  protein stability index: 0.696 ± 0.061
Genetic background: wild type
  protein stability index: 0.685 ± 0.01

## KYKFYDDENLTE [SOL1 C-terminal 12 aa]
[1]
  protein stability index: 0.72 ± 0.017
Genetic background: wild type
  protein stability index: 0.733 ± 0.081

## LSTWDARTPILD [GPI2 C-terminal 12 aa]
[1]
  protein stability index: 0.705 ± 0.0016
Genetic background: wild type
  protein stability index: 0.703 ± 0.0087

## MGVVAAVGVALL [ECM33 C-terminal 12 aa]
[1]
  protein stability index: 0.678 ± 0.019
Genetic background: wild type
  protein stability index: 0.642 ± 0.0081

## QSQYSSRFVELD [MCO12 C-terminal 12 aa]
[1]
  protein stability index: 0.691 ± 0.015
Genetic background: wild type
  protein stability index: 0.6892 ± 0.0068

## RNLLSTYHPMLM [YLR124W C-terminal 12 aa]
[1]
  protein stability index: 0.679 ± 0.0082
Genetic background: wild type
  protein stability index: 0.665 ± 0.0023

## KKKQNDGKSLRS [DBP8 C-terminal 12 aa]
[1]
  protein stability index: 0.687 ± 0.013
Genetic background: wild type
  protein stability index: 0.732 ± 0.0081

## HEWKTSINAIST [SWT1 C-terminal 12 aa]
[1]
  protein stability index: 0.6881 ± 0.0024
Genetic background: wild type
  protein stability index: 0.727 ± 0.079

## KRRSDSKESRKL [YPR145C-A C-terminal 12 aa]
[1]
  protein stability index: 0.713 ± 0.037
Genetic background: wild type
  protein stability index: 0.673 ± 0.03

## AQGKLIMNVEKF [AST1 C-terminal 12 aa]
[1]
  protein stability index: 0.712 ± 0.05
Genetic background: wild type
  protein stability index: 0.689 ± 0.019

## KHVGKGCGYSYH [STP4 C-terminal 12 aa]
[1]
  protein stability index: 0.696 ± 0.024
Genetic background: wild type
  protein stability index: 0.6985 ± 0.0052

## PFKAIFDAVTKE [ARO1 C-terminal 12 aa]
[1]
  protein stability index: 0.73 ± 0.014
Genetic background: wild type
  protein stability index: 0.717 ± 0.021

## KAINFDEDVLNL [VID30 C-terminal 12 aa]
[1]
  protein stability index: 0.66 ± 0.017
Genetic background: wild type
  protein stability index: 0.748 ± 0.02

## KNSNLSPTQIEL [SSK1 C-terminal 12 aa]
[1]
  protein stability index: 0.7083 ± 0.0012
Genetic background: wild type
  protein stability index: 0.693 ± 0.024

## ATSTAAAADKKT [HAP2 C-terminal 12 aa]
[1]
  protein stability index: 0.6674 ± 0.0023
Genetic background: wild type
  protein stability index: 0.724 ± 0.04

## KEFKQFEFHNRR [RRP36 C-terminal 12 aa]
[1]
  protein stability index: 0.729 ± 0.011
Genetic background: wild type
  protein stability index: 0.681 ± 0.011

## IKTIVEAMDVLS [PCC1 C-terminal 12 aa]
[1]
  protein stability index: 0.67028 ± 4.3e-05
Genetic background: wild type
  protein stability index: 0.656 ± 0.025

## AYFIDVVGCSGL [LIH1 C-terminal 12 aa]
[1]
  protein stability index: 0.706 ± 0.00073
Genetic background: wild type
  protein stability index: 0.705 ± 0.025

## NEQFDHKFDETL [APL4 C-terminal 12 aa]
[1]
  protein stability index: 0.726 ± 0.015
Genetic background: wild type
  protein stability index: 0.671 ± 0.01

## IYSVTKKRNTRI [RSF2 C-terminal 12 aa]
[1]
  protein stability index: 0.725 ± 0.026
Genetic background: wild type
  protein stability index: 0.693 ± 0.092

## LKILRQKMNHQN [ATG1 C-terminal 12 aa]
[1]
  protein stability index: 0.686 ± 0.013
Genetic background: wild type
  protein stability index: 0.207 ± 0.042

## RRKITLIEDDEE [SAS3 C-terminal 12 aa]
[1]
  protein stability index: 0.715 ± 0.011
Genetic background: wild type
  protein stability index: 0.672 ± 0.019

## ANRQCYVNGTKT [YDR250C C-terminal 12 aa]
[1]
  protein stability index: 0.663 ± 0.0094
Genetic background: wild type
  protein stability index: 0.69065 ± 0.00059

## CRGIAEVNMKYT [PPS1 C-terminal 12 aa]
[1]
  protein stability index: 0.6869 ± 0.0036
Genetic background: wild type
  protein stability index: 0.6326 ± 0.0059

## PGCVIENGTKLY [ADE57 C-terminal 12 aa]
[1]
  protein stability index: 0.687 ± 0.012
Genetic background: wild type
  protein stability index: 0.71 ± 0.011

## QIVGLLKLLASI [PEX15 C-terminal 12 aa]
[1]
  protein stability index: 0.68 ± 0.036
Genetic background: wild type
  protein stability index: 0.405 ± 0.038

## TDIENRNFRYIY [THI73 C-terminal 12 aa]
[1]
  protein stability index: 0.6944 ± 0.0043
Genetic background: wild type
  protein stability index: 0.702 ± 0.022

## IAEENSSTESLF [CIS1 C-terminal 12 aa]
[1]
  protein stability index: 0.709 ± 0.0088
Genetic background: wild type
  protein stability index: 0.726 ± 0.065

## RAQPGRKRKHKK [RSC58 C-terminal 12 aa]
[1]
  protein stability index: 0.743 ± 0.019
Genetic background: wild type
  protein stability index: 0.696 ± 0.0068

## YKIKKQPRKKQQ [HST1 C-terminal 12 aa]
[1]
  protein stability index: 0.739 ± 0.015
Genetic background: wild type
  protein stability index: 0.708 ± 0.081
